Assay results: the RNAGym collection of RNA variant scans (doi:10.1073/pnas.2313332121)

B1: TPR t1 (parent)
chain: GACCAAUCUGCCCUCAGAGCUCGAGAACAUCUUCGGAUGCAGAGGAGGCAGGCUUCGGUGGCGCGAUAGCGCCAACGUCCUCAACCUCCAAUGCAUCCCACCACAUGAUGAUGCCUGAAGAGCCUUGGUUUUUUG

Variants of: B1
Assay: polymerase ribozyme fitness, log enrichment relative to wild type (log ratio); higher = more active; in vitro selection for triplet polymerase activity
Method in brief: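 For each subunit of a heterodimeric triplet polymerase ribozyme, a mutant library was built by PCR and transcribed, then taken through a single in vitro selection round in triplicate. Selection involved annealing to a biotinylated primer, the partner subunit and triplets, incubation frozen at −7 °C, gel excision of extended constructs, capture on streptavidin beads and RT-PCR. Genotypes were retained after Illumina sequencing of inputs and outputs only with ≥10 input reads and ≥1 read in each output. Fitness is defined as the logarithm of a genotype's enrichment relative to wild-type enrichment, using inverse-variance-weighted averages across replicates, with the logarithm taken to base 2.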

| Variant | polymerase ribozyme fitness (log ratio) |
| --- | --- |
| GACCAAUCUGCGCUCAGAGCUCGAGAACAUCUUCGGAUGCAGAGGAGGCAGGCUUCGGUGGCGCGAUAGCGCCAACGUCCUCAACCUCCAAUGCAUCUCACCACAUGAUGAUGCCUGAAGAGCCUUGGUUUUUUG | -0.616 |
| GACCAAUCUGCGCUCAGAGCUCGAGAACAUCUUCGGAUGCAGAGGAGGCAGGCUUCGGUGGCGCGAUAGCGCCAACGUCCUCAACCUCCAAUGUAUCCCACCACAUGAUGAUGCCUGAAGAGCCUUGGUUUUUUG | -0.437 |
| GACCAAUCUGCGCUCAGAGCUCGAGAACAUCUUCGGAUGCAGAGAAGGCAGGCUUCGGUGGCGCGAUAGCGCCAACGUCCUCACCCUCCAAUGCAUCCCACCACAGGAUGAUGCCUGAAGAGCCUUGGUUUUUUG | -1.76 |
| GACCAAUCUGCGCUCAGAGCUCGAGAACAUCUUCAGUUGCAGAGGAGGCAGGCUUCGGUGGCCCGAUAGCGCCAACGUCCUCAACCUCCAAUGCAUCCCACCACAUGAUGAUGCCUGAAGAGCCUUGGUUUUUUG | -5.96 |
| GACCAAUCUGCGCUCAGAGCUCGAGAACAUCUUCGGAUGCAAAGGAGGCAGGCUUCCGUGGCGCGAUAGCGUCAACGUCCUCAACCUCCAAUGCAUCCCACCACAUGAUGAUGCCUGAAGAGCCCUGGUUUUUUG | -4.98 |
| GACCAAUCUGCGCUCAGAGCUCGAGAACAUCUUCGGAUGCAGAAGAGGCAGGCUUCGGUGGCACGAUAGCGCCAACGUCCUCAACCUCCAAUGCAUCCCACCACAUGAUGAGGCCUGAAGAUCCUUGGUUUUUUU | -2.91 |
| GACCAAUCUGCGCUCAGAGCUCGAGAACAUCUUCGGAUUCAGAGGAGGCAGGGUUCGGUGGCGCGAUAGCGCCAACGUCCUCAACCUCCAAUGCAUCCCACCACAUGAUGAUGCCUGAAGAGCCUUGGUUUUUUG | -0.932 |
| GACCAAUCUGCGCUCACAGCUCGAGAACAUCUUCGGAUGCAGAGGAGGCAGGCUUCGGUGGCGCGAUAGCGCCAACGUCCUCAACCGCCAAUGCAUACCACCACAUGAUGAUGCCUGAAGAGGCUUGGUUUUUUG | -6.84 |
| GACCAAUCUGCGCUCAGAGCUCGAGAACAUCUUCGGAUGCAGAGGAGCCAGGCUUCGGUGGCGCGAUAGCGCCAACGUCCUCAACCUCCACUGCAUCCCACCACAUGAUGAUGCCUGAAGAGCCUUGGUUUUUUG | -2.22 |
| GACCAAUCUGCGCUCAGAGCUCGAGAACAUCUUCGGAUGCAGAGGAGGCAGGCUUCGGUGGCGCGAUAGCGCCAACGUCCUCAACCUCUAAUGCAUACCACCACAUGAUGAUCCCUGAAGAGCCUUGGUUUUUUG | -6.48 |
| GACCAAUCUGCGCUCAGAGCUCGAGAACAUCUUCGGAUGCAGAGGACGCAGGCUUCGGUGGCGCGAUAGCGCCAACGUCCUCAACCUCCAAUGCAUCCCACCACAUGAUGAUGCCUGAAGAGCCUUGGUUUUUUG | -1.34 |
| GACCAAUCUGCGCUCAGAGCUCGAGAACAUCUUCGAAUGCAGAGGAGGCAGGAUUCGGUGGCGCGAUAGCGCCGACGUCCUCAACCUCUAAUGCAUCCCACCACAUGAUGAUGCCUGAAGAGCCUUGGUUUUUUG | -1.5 |
| GACCAAUCUGCGCUCAGAGCUCGAGAACAUCUUCGGAUGCAGAGGAGGCAGACUUCGGUGCCGCGAUAGCGCCAACGUCCUCAACCUUCAAUGCAUCCCACCACAUGAUGAUGCCUGAAUAGCCUUGGUUUUUUG | -3.61 |
| GACCAAUCUGCGCUCAGAGCUCGAGAACAUCUUCGGAUGCAGAGGAGACAGGCUUCGGUGGCGCGAUAGCGCCAACGUCCUCAACCUCCAAUGCAUCCCACCACAUGAUGAUGCCUGAAGAGCCUUGGUUUUUUG | -0.668 |
| GACCAAUCUGCGCUCAGAGCUCGAGAACAUCUUCGGAUGCAGAGGAGGCAUGCUUCGGUGGCGCGAUAGCGCCAACGUCCUCAACCUCCAAUGCAUCCCACCACAUGAUGAUGCCUGAAGAGCCUUGGUUUUUUG | -2.93 |
| GACCAAUCUGCGCUCAGAGCUCGAGAACAUCUUCUGAUGCAGAGGAGGCAGGCUUCGGUGGCGCGAUAGUGCCCACGUCCUCAACCUCCAAUGCAUCCCACCACAUGAUGAUGCCUGAAGAGGCUUGGUUUUUUG | -5.14 |
| GACCAAUCUGCGCUCAGAGCUCGAGAACAUCUUCGGAUGCAGAGGAGGCAGGCUUCGGUGGCGCGAUAGCGCCAACGUCCUCAACCUCCAAUGCAUCCCACCACAUGAUGAUGCCUGAAGAGACUCGGUUUUUUG | 0.201 |
| GACCAAUCUGCGCUCAGAGCUCGAGAACAUCUUCGGAUGCAGAGGAGGCAGGCUUCGGUGGCGCGAUAGCGCUAACGUCCUCAACCUCCAAUGCAUACCACCACAUGAUGAUGCCUGAAGAGCCUUGGUUUUUUG | -4.85 |
| GACCAAUCUGCGCUCAGAGCUCAAGAACAUCUUCGGAUGCAGAGGAGGCAGGCUUCGGUGGCGCGAUAGCCCCAACGUCCUCAACCUCCAAUGCAUCCCACCACAUGAUGAUGCCUGAAGAGGCUUGGAUUUUUG | -7.78 |
| GACCAAUCUGCGCUCAGAGCUCGAGAACAUCUUCGGAUGCAGAGGAUGCAGGCUUCGGUGGCGCGAUAGCGCCAACGUCCUCAACCUCCAAUGGAUCCCACCACAUGAUGAUGCCUGAAGAGCCUUGAUUUUUUG | -4.93 |
| GACCAAUCUGCGCUCAGAGCUCGAGAACAUCUUCGGAUGCAGAGGAGGCAGGCUUCGGUGGCGCGAUAGCGCCAACGUCCUCAACCUCCAAUGCAUCCCACCACAUGAUGAUGCAUGAAGAGCCUUGGUUUUUUG | -0.408 |

| Variant | polymerase ribozyme fitness (log ratio) |
| --- | --- |
| GACCAAUCUGCGCUCAGAGCUCGAGAACAUCUUCGGAUGCAGAGGAGGCAGGCUUCGGUGGCGCGAUAGCGCCAACGUCCUCAACCUCCAAUGCAUCCCACCACAUGAUGAUGCUUGAAGAGCCUUGGUUUUUUG | -1.38 |
| GACCAAUCUGCGCUCAGAGCUCGAGAACAUCUUCGGAUGCAGAGGAGGCAGGCUUCGGUGGCGCGAUAGCGCCAACGUCCUCAACCUCCAAUGCAUCCCACUACAUGAUGAUGCCUGAGGAGCUAUGGUUUUUUG | -0.278 |
| GACCAAUCUGCGCUCAGAGCUCGAGAACAUCUUCGGAUGCAGAGGAAGCAGGCUUCGGUGGCGCGAUAGCGCCAACGUCCUCAACCUCCAAUGCAUCCCACCACAUGAUGAUACCUGAAGAGCUUUGGGUUUAUG | -4.6 |
| GACCAAUCUGCGCUCAGAGCUCGAGAACAUCUUCGGAUGCAGAGGAGGCAGGCUUCGGUGGCGCGAUAGCGCUAACGUCCUCAACCUCCAAUGCAUCCCACCACAUGAUGAUGCCUGAAGAGCCUUGGUUUUUUG | -0.295 |
| GACCAAUCUGCGCUCAGAGCUCGAGAACAUCUUCGGAUGCAGAGGAGGCAGGCUUCGGUGGCGCGAUAGCGCAAACGUCCUCAACCUCCAAUGCAUCCCACCACAUGAUGAUGCCUGAAGAGCCUUGGUUUUUUG | 0.691 |
| GACCAAUCUGCGCUCAGAGCUCGAGAACAUCUUCGGAUGCAGAUGACGCAGGCUUCGCUGGCGCGAUAGCGCCAACGUCCUCAACCUCCAAUGCAUCCCACCACAUGAUGAUGCCAGAAGAGCCUUGGUUUUUUG | -5.59 |
| GACCAAUCUGCGCUCAGAGCUCGAGAACAUCUUCGGAUGCAGAGUAGGCAGGCUUCGGUGGCGCGAUAGCGCCAACGUCCUCAACCUCCAAUGCAUCCCAUCACAUGAUGAUGCCUGUAGAGCCUUGGUUUUUUG | -0.398 |
| GACCAAUCUGCGCUCAGAGCUCGAGAACAUCUUCGGAUGCAGAGUAGGCAGGCUUCGGUGGCGCGAUAGCGCCAACGUCCUCAACCUCCAAUGCAUCCCACCACAUGAUGAUGCCUGAAGAGCCUUGGUUUUUUG | -0.996 |
| GACCAAUCUGCGCUCAGAGCUCGAGAACAUCUUCGGAUACAGAGGAGGCAGGCUUCGGUGGCGCGAUAGCGCCAACGUCCUGAACCUCCAAUGCAUCCCACCACAUGAUGAUGUCUGAAGAGCCUUGGUUUUUUG | -3.7 |
| GACCAAUCUGCGCUCAGAGCUCGAGAACAUCUUCGGAUGCAGAGGAGGCAGGCUUCGGUGGCGCGAUAGCGCCAAAGUCCUCAACCUCCAAUGCAUCCCACCACAUGAUGAUGCCAGAAGAGCCUUGGUUUUUUG | -3.37 |
| GACCAAUCUGCGCUCAGAGCUCGAGAACAUCUUCGGAUGCAGAGGAGGCAGGCUUCGGUGGCGCGAUAGCGCCAAAGUCCUCAACCUCCAAUGCUUCCCACCACAUGAUGAUGCUUGAAGAGCCUUGGUUUUUUG | -4.26 |
| GACCAAUCUGCGCUCAGACCUCGAGAACAUCUUCGGAUGCAGAGGAGGCAGGCUUCAGUGGCGCGAUAGCGCCAACGUCCUCAACCUCCAAUGCAUCCCACCACAUGAUGAUGCCUGAGGAGCCUUGGUUAUUUG | -3.15 |
| GACCAAUCUGCGCUCAGAUCUCGAGAACAUCUUCGGAUGCAGAGGAGGCAGGCUUCGGUGGCGCGAUAGCGACAACGUCCUCAACCUCCAAUGCAUCCCACCACAUGAUGAUGCCUGAAGAGCCUUGGUUUUUUG | -5.03 |
| GACCAAUCUGCGCUCAGAGCUCGAGAACAUCUUCGGAUGCAGAGGAUGCAGGCUUCGGUGGCGUGAUAGCGCCAACGUCCUCAACCUCCAAUGCAUCCCACCACAUGAUGAUGCCUGAAGAGCCUUGGUUUUUUG | -1.58 |
| GACCAAUCUGCGCUCAGAGCUCGAGAACAUCUUCGGAUGCAGAUGAGGCAGGCUUCGGGGGCGCGAUAGCGCCAACGUCCUCAACCUCCAAUGCAUCCCACCACAUGAUGAUGCCUGAAGAGCCUUGGUUUUUUG | -1.39 |
| GACCAAUCUGCGCUCAGAGCUCGAGAACAUCUUCGGAUGCAGAGGAGGCAGGCUUCGGUGGCGCGAUAGCGCCAACGUCCUCAACCUCCAAUGCAUCCCAGGACAUGAUCAUGCCUGAAGAGCCUUGGUUUUUUG | -5.71 |
| GACCAAUCUGCGCUCAGAGCUCGAGAACAUCUUCGGAUGCAGAGGAGGCAGGCUUCGGUGGCGCGAUAGCGCCAACGUCCUCAACCUCCAAUGCAUCCCACAACAUGAUGAUGCCUGAAGAGCCUUGGUUUUUUG | -1.85 |
| GACCAAUCUGCGCUCAGAGCUCGAGAACAUCUUCGGAUGCAGAGGAGGCAGGCUUCGGUGGCGCGAUAGCGCCAACGUCCUCAACCUCCAAUGCAUCCCACUACAUGAUGAUGCCUGAAGAGCCUUGGUUUUUUG | -1.38 |
| GACCAAUCUGCGCUCAGAGCUCGAGAACAUCUUCGCAUGCAGAGGAGGCAGGCUUCGGUGGCGCGAUAGCGCCAACGUCCUCAACCUCCAAUGCAUCCCACCACAUGAUGAUGACUGAAAAGCCUUGGUUUUUUG | -2.67 |
| GACCAAUCUGCGCUCAGAGCUCGAGAACAUCUUCGGAUGCAGAGGAGGCAGGCUUCGGUGGCGCGAUAGCGCCAACGUCCUCAACCUCCAAUGCAUCCCAGCACAUGAUUAUGCCUGAAGAGCCUUGGUUUUUUG | -5.05 |
| GACCAAUCUGCGCUCAGAGCUCGAGAACAUCUUCGGAUACAGAAGAGGCAGGCUUCGGUGGCGCGAUAGCGCCAACGUCCUCAACCUCCAAUGCAUCCCACUACAUGAUGAUGCCUGAAGAGCCUUGGUUUUUUG | -4.47 |
